{
  "source": "paper PMC2639713",
  "molecular_target": "T1, mini-vRNAP K176C/S885C (Bacteriophage N4 (coliphage), UniProt Q859P9 998-2103, K1173C;S1882C)",
  "T1 sequence": "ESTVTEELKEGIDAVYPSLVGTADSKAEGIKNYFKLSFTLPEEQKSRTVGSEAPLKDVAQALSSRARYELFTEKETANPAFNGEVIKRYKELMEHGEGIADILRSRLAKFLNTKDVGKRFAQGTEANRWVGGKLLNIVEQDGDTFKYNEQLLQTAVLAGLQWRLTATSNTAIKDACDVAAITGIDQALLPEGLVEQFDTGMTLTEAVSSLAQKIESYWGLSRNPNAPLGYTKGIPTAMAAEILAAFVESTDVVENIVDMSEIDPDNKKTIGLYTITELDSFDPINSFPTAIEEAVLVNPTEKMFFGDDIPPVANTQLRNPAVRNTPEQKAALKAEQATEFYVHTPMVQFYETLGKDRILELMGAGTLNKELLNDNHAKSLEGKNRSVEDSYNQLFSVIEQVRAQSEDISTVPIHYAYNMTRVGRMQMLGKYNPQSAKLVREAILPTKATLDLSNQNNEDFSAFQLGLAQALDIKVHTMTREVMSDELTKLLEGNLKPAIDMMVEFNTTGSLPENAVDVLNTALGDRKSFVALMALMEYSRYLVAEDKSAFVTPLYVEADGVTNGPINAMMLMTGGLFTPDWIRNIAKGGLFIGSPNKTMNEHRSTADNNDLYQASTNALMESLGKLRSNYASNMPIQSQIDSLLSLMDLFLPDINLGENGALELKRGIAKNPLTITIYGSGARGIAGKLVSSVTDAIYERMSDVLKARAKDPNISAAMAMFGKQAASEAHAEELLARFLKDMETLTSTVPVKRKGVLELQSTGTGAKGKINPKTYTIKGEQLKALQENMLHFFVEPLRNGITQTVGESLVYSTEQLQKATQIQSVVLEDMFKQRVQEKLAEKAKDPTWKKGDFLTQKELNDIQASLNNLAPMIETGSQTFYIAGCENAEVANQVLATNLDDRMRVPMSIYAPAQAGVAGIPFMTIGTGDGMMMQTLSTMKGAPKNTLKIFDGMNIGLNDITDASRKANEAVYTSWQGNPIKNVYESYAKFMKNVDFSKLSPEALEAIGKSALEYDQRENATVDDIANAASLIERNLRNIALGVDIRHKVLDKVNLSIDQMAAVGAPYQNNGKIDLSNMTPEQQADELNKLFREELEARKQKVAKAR",
  "assay": "UV cross-linking",
  "data": [
    {"binder": "GAAGCGTAGCTTC (structured_DNA, 5-iodo-dU at position 7 (-11), written as T)", "note": "[13mer -11 5-IdU promoter hairpin (-17 to -5)]", "values": [
      {"measurement": "binding result", "result": "binds"}
    ]}
  ]
}
